Assay: yeast display, Sf9 membrane polyspecificity reagent, FACS + sequencing; frameworks hold sequencing errors
Method in brief: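 Genes from sorted yeast were amplified by colony PCR, read by MiSeq 2 × 250 sequencing and filtered on CDR length. These cells carried a synthetic nanobody library in Saccharomyces cerevisiae BJ5465 and were sorted by FACS into low and high (top ~1%) gates on anti-HA and streptavidin fluorescence. Polyreactivity is labelled according to the gate of origin.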
In the case of “QVQLVESGGGLVQAGGSLRLSCAASGSTFSLNDRGWYRQAPGKERELVAVISSSTGITYYADSVKGRFTISRDNAKYTVYLQMNSLKPEDTAVYYCNADKWEVYYTRMYYWGQGTQVTVSS”, the “polyreactivity (PSR sort gate)” value is reported as “low polyreactivity”.
With “QVQLVESGGGVVQAGGSLRLSCAASGRIFRYNAMGWYRQAPGKEREVVAGISFSGGSTYYADSVKGRFTISRDNAKNTVYLQMNSLKPEDTAVYYCNAYGRYSYPTFDYWGQGTQVTVSS” the “polyreactivity (PSR sort gate)” value was “high polyreactivity”.
For “QVQLVESGGGLVQEGGSLRLSCAASGIIFGYNAMGWYRQAPGKERELVAAISRRGGTTYYADSVKGRLTISRDNSKNTVYLQMNSLKPEDTAVYYCAAQWSPTEHEYNYSGQGTQVTVSS”, the “polyreactivity (PSR sort gate)” value was “low polyreactivity”.
For “QVQLVESGGGLVQAGGRLRLSCAASGRTFDRYAMGWYRQAPGKERELVAAITWSGGRTYYADSVKGRFTISRDNAKKTVYLQMNSLKPEDTAVYYCAADNSYRGYHSPYDYWGQGTQVTVSS”, the “polyreactivity (PSR sort gate)” value was “low polyreactivity”.
With “QVQLVESGGGLVHAGGSLRLSCAASGSTFDGYTMGWYRQAPGTERELVAAITDSGGSTYYADSVKGRFTISRDKAKNTVYLQMNSQKPEDTAVYYFAAAVPELYEVRYHDDYWGQGTQVTVSS” the “polyreactivity (PSR sort gate)” value was “low polyreactivity”.
In the case of “QVQLVESGGGLVQAGGSLRLSCAASGSIFTRNAMGWYRQAPGKERELVATITSNDGSTNYADSVKGRFTISRDNAKNTVYLQMNSLKPEDTAVYYCNRSYGVYSEFDYWGQGTQVTVSS”, the “polyreactivity (PSR sort gate)” value is reported as “low polyreactivity”.
For “QVQLVESGGGLVQAGGSLRLSCAASGRTFLPNPMGWYRQAPGKERELVAVITSGGSTNYADSVKGRFTISRDNAKNTVYLQMNSLKPEDTAVYYCAADRYSYFYIGYDYWGQGTQVTVSS”, the “polyreactivity (PSR sort gate)” value was “low polyreactivity”.
For “QVQLVESGGGIVQAGGSLRLICAASGSIFSSYVMGWYRQAPGKERELVAAITSRGGSTYYADSVKGRFTISRDNAKNTVYLQMNSLKPEDTAVYYCAKGGTTWYWSGYRSIYFRYDYWGQGTQVTVSS”, the “polyreactivity (PSR sort gate)” value was “high polyreactivity”.
For “QVQLVESGGGLVQAGGSLRLTCAASGIIFKQNVKGWYRKAPGKESELVAAITSRDGTTYYADSVKGRFTISRDNAKNTVYLQMNSLKPEDTAVYYCATLFKSGSYKYGYWGQGTQVTVSS”, the “polyreactivity (PSR sort gate)” value was “high polyreactivity”.
In the case of “QVQLVESGGGLVQAGGSLRLSCAASGRTSWPYAMGWYRQAPGKERELVAGISRNGGRTYYADSVKGRFTISRDNAKNTVYLQMNSLKPEDTAVYYCNAYPPSRHDYWGQGTQVTVSS”, the “polyreactivity (PSR sort gate)” value is reported as “high polyreactivity”.
For “QVQHVESGGGLVQAGGSLRLTCAATGRIFYTNTMGWYRQAPGKEREFVAAISWRGGSTYYADSVKGRFTISRDNAKNTVYLQMNSLKPEDTAVYYCAKTRTYFLSRYVSWGQGTQVTVSS”, the “polyreactivity (PSR sort gate)” value was “high polyreactivity”.
With “QLQLVETGGGLVQAGGSLRLSCAASGRIFQYYVMGWYRQAPGKERELVAAITSGGSTYYADSVKGRFTISRDNAKNTVYLQMNSLKPEDTAVYYCAAGYWYNFDYWGQGTQVTVSS” the “polyreactivity (PSR sort gate)” value was “high polyreactivity”.
With “QVQLVDSGGGLVQAGGSLRLSCAASGRIFYRYAMGWYRQAPGKERELVATISRGGITNYADSVKGRFTISRDNAKNTVYLEMNSLKPEDTAVYYCNAVYGFRRLFEYEYDYWGQGTQVTVSS” the “polyreactivity (PSR sort gate)” value was “high polyreactivity”.
For “QVQLVESGGGLVQAGGSLRLSCAASGRIFAYYAMGWYRQAPGKERELVAAINRSGVRTYYADSVKGRFTISRDNAKNTVYLQMNSLKPEDTAVYYCAAPGQHSWGQGTQVTVSS”, the “polyreactivity (PSR sort gate)” value was “high polyreactivity”.
With “QVQLVESGGGLVQARGSLRLSCAASGRTFTSYAMGWYRQAPGKERELVAAISKRGGNTYYADSVKGRFTISRDNAKNTVYLQMNSLKPEDTAVYYCAARTWAGRWYGLDYWGQGTQVTVSS” the “polyreactivity (PSR sort gate)” value was “high polyreactivity”.
With “QEQLVESGGGLVQAGGSLRLICPASGSIFNIYAMPWSRQAPGKERELVATITGIADSTYYADSVKGRFTISRDNAMNTVYLQMNSLKPEDTAVYYCAAEKYVAEYDYWGHGTQVTVSS” the “polyreactivity (PSR sort gate)” value was “low polyreactivity”.
With “QVQLVESGGGLVQAGGSLRLSCAASGSTFRIYAMGWYRQAPGKERELVAAISKRGGSTYYADSVKGRFTISRDNAKNTVYLQMNSLKPEDTAVYYCAKPPYSQYEFDYWGQGTQVTVSS” the “polyreactivity (PSR sort gate)” value was “high polyreactivity”.
In the case of “QVQLVESGGGLVQAGGSLRLSCAASGIIFDYYAMGWYRQAPGKERELVASISWSGGGTYYADSVKGRFTISRDNAKNTVYLEMNSLKPEDTAVYYCAADGSTVNAPRWSDPYDYWGQGTQVTVSS”, the “polyreactivity (PSR sort gate)” value is reported as “low polyreactivity”.
In the case of “QVQLVESGGGLVQAGGSLRLSCAASGINFYAYAMGWYRKAPGKERELVAAITFSAVSTYYADSVKGRFTISRDNAKNSVYLQMNSLKPEDTAVYYCAAEAYKQGVWDYDYWGQGTQVTVSS”, the “polyreactivity (PSR sort gate)” value is reported as “low polyreactivity”.
With “QVQLVESAAGLVQAGGSLRLSCAASGFIFWYYAMGWSRQAPGKERELVAAINSSGGSTYYADSVKGRFSISRDNAKNTVYLQMNSLKPEDSAVYYCAARAYQRGNYWGQGTQVTVSS” the “polyreactivity (PSR sort gate)” value was “high polyreactivity”.
With “QVQLVESGGGLVQAGGSLRLSCAASGRTFHYYAMGWYRQAPGKERELVASISSGGSTHYADSVKGRFTISRDNANNTGYLQMNSLKPEDTAVYYCNRVDGYGPRNKVPYVTYGVYYWGQGTQVTVSS” the “polyreactivity (PSR sort gate)” value was “low polyreactivity”.
In the case of “QVQLVESGGGLVQAGGSLRLSCAATGRIFRVYAMGWYRQAPGKVRELVAAISSGGSTNYADSVKGGFTISRDNAKNTVYLQMKSLKPEDTAVYYCAADYWYRLFWYYGAPLDYWGQGTQVTVSS”, the “polyreactivity (PSR sort gate)” value is reported as “low polyreactivity”.
With “QVQLVESWGGLVQAGGSLRLSCAASGITFPINTMGWYRQAPGKERELVAGIDWTGGSTYYADSVKGRFTISRDNAKNTVYLQMNSLKPEDTAVYYCAKRSYTGYEYWGQGTQVTVSS” the “polyreactivity (PSR sort gate)” value was “low polyreactivity”.
With “QVQLVESGGGLVQAGGSLRLSCAASGFTYRYYAMGWYRQSPGKERELVAAISSGGNTRYADSVKGRFTISRDNAKNTVYLQMTSLKPEDTAVYYCARRPGDWKYVYTGDYWGQGTQVTVSS” the “polyreactivity (PSR sort gate)” value was “high polyreactivity”.
In the case of “QVKLVESGGGLVQAGVSLRLSCAASGRIFVFYAMGWYRQAPGKERELVAAITASSTRTYYADSVKGRFTISRAHAKNTVYLQMNSLKPEDTAVYYCARDIRQYILYGRGDYWGQGTQVTVSS”, the “polyreactivity (PSR sort gate)” value is reported as “low polyreactivity”.
With “QVQLEESGGGLVQAGGSLRLSCAASGLTFVQYTMGWYRQAPGKERELVAVITSASSTNYADSVKGRFTISRDNAKNTVYLQMNSLKPEDPAVYYCNATTYPYYTNSYQYEYWGQGTQVTVSS” the “polyreactivity (PSR sort gate)” value was “low polyreactivity”.
In the case of “QVQLVESWGGLVQAGGSLRLSCAASGITFFFYAMGLYRLAPGKERELVASITWEDGSTYYADSVKGRFTISRDNANNTVYLQKNSLKPEDTAVYYCAADFEAGGYSLDYWGQGTQVTVSS”, the “polyreactivity (PSR sort gate)” value is reported as “low polyreactivity”.
For “QVQLVESGGGLVQAGGSLRLSCASSGRTFWYYAMGWYRQPPGKERELVAAITSGGSTNYADSVKGRFTISRDNAKNTVYLQMNSLKPEDTAVYYCATDNPVFEYDYWGQGTQVTVSS”, the “polyreactivity (PSR sort gate)” value was “low polyreactivity”.
In the case of “QVQLVESGGGLVQAGGSLRLSCAASGSTFDSYAMGWYRPAPGKERELVAAISSGGSTNYADSVKGRFTISRDNAKNTVYLQMYSLKPEDTAVYYCAAYGGHIWWLYRHYGYDYWGQGTQVTVSS”, the “polyreactivity (PSR sort gate)” value is reported as “low polyreactivity”.
With “QVQLVESGGCLVQAGCSLSLSCAASGITFRPYAMGWYRQAPGKERELVAAIRWDGGSTYYADSVKGRFTISRDNAKNTVYLQMNSMKPEDTAVDYCAAKRPTHVRKMDYWGQGTQVTVSS” the “polyreactivity (PSR sort gate)” value was “high polyreactivity”.
With “QVQLVESGGGLVQAGGSLRLSCAASGSTFAANTMGWYRQAPGKEWELVAAITVRGGSTYYADSVKGRFTISRDNAKTTVYLQMNSLKPEDTAVYYCAAERPPYGYLVVGYVSTQYYYWGQGTQVTVSS” the “polyreactivity (PSR sort gate)” value was “low polyreactivity”.
With “QVQLVESGGGLVQAGGSLRLSCAASGITFPDYAMGWYRQAPGKERELVATISSSGGNTYYADSVKGRFTISRDNAKNTVYLQMNSLKPEDTAVYYCATVSYYWGYDYWGQGTQVTVSS” the “polyreactivity (PSR sort gate)” value was “low polyreactivity”.
In the case of “QVQLVESGGGLVQAGGSLRLSCAASGFIFLRYGMGWYRKAPGKERELVASIDSTGGSTYADSVKGRFTISRDNAKNTVYLQMNSLKPEDTAVYYCAAAYYIVSERDYWGQGTQVTVSS”, the “polyreactivity (PSR sort gate)” value is reported as “low polyreactivity”.
For “QVQLVESGGGLVQAGGSLRLSCAASGSTFKYYAMGWYRQAPGKERELVAAISSGGSTYYADSVKGRFTISRDNAKNTVYLQMNSLKPEDTAVYYCAARGYYGKFSGSGYWGQGTQVTVSS”, the “polyreactivity (PSR sort gate)” value was “high polyreactivity”.
In the case of “QVQLVESGGGLVQAGGSLRLSCAASGSTFRYNAMGWYRQAPGKERELVAGISYRGGTTYYADSVKGRFTISRDNAKNTVYLQMNSLKPEDTAVYYCAAGASSPGGWFYYWGQGTQVTVSS”, the “polyreactivity (PSR sort gate)” value is reported as “high polyreactivity”.
For “QVQLVESGGGLVQAGGSLRLSCAASGFTFWDYAMGWYRQAPGKESELVAAISDNDGSTDYADYVKGRFTISRDNAKNTVYLPMNSLKPEDTAVYYCNGEIELPSKEGDYWGQGTQVTVSS”, the “polyreactivity (PSR sort gate)” value was “low polyreactivity”.
With “QVQLVESGGGLVQAGGSLSLSCAASGRNFVINALGWYRQAPGTERELVARIRSGGSTNYADSVKGRFTISRDNAKNTVYLQMNSLKPEDTAVYYCAAYLRTERYGYWGQGTQVTVSS” the “polyreactivity (PSR sort gate)” value was “high polyreactivity”.
With “QVQLVESGGGLVQAGGSLRLSCAASGSTFRFYAMGWYRQAPGKERELVAVISSAGSTNYADSVKGRFTISRDNAKNTVYLQMNSLKTEDTAVYYCAAYRRYSIYNYWGQGTQVTVSS” the “polyreactivity (PSR sort gate)” value was “high polyreactivity”.
In the case of “QVQLVESGGRLVQAGGSLRLSCAASGLIFAPYAMGWYRQAPGKEWELVAAISSSGTSTYYADSVKGRFTISRDNAKNTVYLQMNSLKPEDTAVYYCAAVYWTFWGTIATRYDYWGQGTQVTVSS”, the “polyreactivity (PSR sort gate)” value is reported as “high polyreactivity”.
In the case of “QVQLVESGGGLVQAGGSLRLSCAASGFIFSGYAMGWYRQAPGKERELVAAISTRGGRTYYADSVKGRFTISRDNAKNTVYLQMNSLKPEDTAVYYCAADSLYPELDYWGQGTQVTVSS”, the “polyreactivity (PSR sort gate)” value is reported as “high polyreactivity”.
For “QVQLVESGGGLVQAGGNLRLSCAASGFIFTRYAMGWYRQAPGKERELVAAISTSGDRTYYADSVKGRFTISRDNAKNTVYLQMNSLKPEDTAVYYCATSKSYSSKLYDYWGQGTQVTVSS”, the “polyreactivity (PSR sort gate)” value was “high polyreactivity”.

From the nanobody polyreactivity screen of Harvey et al. (2022)
